{"source": "paper PMC9253567", "target": "myc-tagged TRIM25 WT (tripartite motif-containing protein 25), Q14258", "sequence (Q14258 whole entry)": "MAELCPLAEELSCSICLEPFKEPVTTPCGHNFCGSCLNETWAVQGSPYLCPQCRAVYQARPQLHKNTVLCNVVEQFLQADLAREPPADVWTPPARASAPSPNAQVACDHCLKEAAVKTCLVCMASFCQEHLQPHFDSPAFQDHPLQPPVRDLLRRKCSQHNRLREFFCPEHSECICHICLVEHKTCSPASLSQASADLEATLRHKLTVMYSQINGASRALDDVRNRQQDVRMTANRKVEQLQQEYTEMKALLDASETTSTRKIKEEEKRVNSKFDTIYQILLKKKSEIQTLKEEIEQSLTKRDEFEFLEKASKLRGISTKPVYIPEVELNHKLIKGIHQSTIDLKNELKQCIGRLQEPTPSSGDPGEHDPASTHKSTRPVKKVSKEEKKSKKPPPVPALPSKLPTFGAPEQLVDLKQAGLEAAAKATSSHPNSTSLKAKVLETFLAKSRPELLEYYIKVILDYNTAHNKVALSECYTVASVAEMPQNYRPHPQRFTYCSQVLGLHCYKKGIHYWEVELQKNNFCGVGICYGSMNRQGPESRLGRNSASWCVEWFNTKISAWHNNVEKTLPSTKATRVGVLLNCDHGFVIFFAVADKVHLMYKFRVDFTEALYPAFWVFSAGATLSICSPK", "test": "co-IP; myc IP (anti-myc beads) of myc-TRIM25 WT from lysates of ZAP KO 293T cells co-transfected with FLAG-ZAPS or FLAG-ZAPL WT or mutants; FLAG-ZAP detected by immunoblot; FLAG IP buffer (100 mM Tris-HCl 8.0, 150 mM NaCl, 5 mM EDTA, 1 mM DTT, 5% glycerol, 0.1% NP-40), 4°C, 45 min; FLAG IP band divided by myc IP band (ImageJ)", "details": "remark: other sources report otherwise", "note": "“And” between values parts separate entries of the source, which are not always exact repeats. Identical values can stand only once.", "data": [{"binder": "FLAG-tagged ZAPS WT (zinc finger antiviral protein, short isoform), Q7Z2W4-2 1-699 (natural protein) MADPEVCCFITKILCAHGGRMALDALLQEIALSEPQLCEVLQVAGPDRFVVLETGGEAGITRSVVATTRARVCRRKYCQRPCDNLHLCKLNLLGRCNYSQSERNLCKYSHEVLSEENFKVLKNHELSGLNKEELAVLLLQSDPFFMPEICKSYKGEGRQQICNQQPPCSRLHICDHFTRGNCRFPNCLRSHNLMDRKVLAIMREHGLNPDVVQNIQDICNSKHMQKNPPGPRAPSSHRRNMAYRARSKSRDRFFQGSQEFLASASASAERSCTPSPDQISHRASLEDAPVDDLTRKFTYLGSQDRARPPSGSSKATDLGGTSQAGTSQRFLENGSQEDLLHGNPGSTYLASNSTSAPNWKSLTSWTNDQGARRKTVFSPTLPAARSSLGSLQTPEAVTTRKGTGLLSSDYRIINGKSGTQDIQPGPLFNNNADGVATDITSTRSLNYKSTSSGHREISSPRIQDAGPASRDVQATGRIADDADPRVALVNDSLSDVTSTTSSRVDDHDSEEICLDHLCKGCPLNGSCSKVHFHLPYRWQMLIGKTWTDFEHMETIEKGYCNPGIHLCSVGSYTINFRVMSCDSFPIRRLSTPSSVTKPANSVFTTKWIWYWKNESGTWIQYGEEKDKRKNSNVDSSYLESLYQSCPRGVVPFQAGSRNYELSFQGMIQTNIASKTQKDVIRRPTFVPQWYVQQMKRGPE", "values": [{"measurement": "ZAP-TRIM25 interaction (co-IP, FLAG-ZAP band over myc-TRIM25 band, ImageJ)", "value": "0.131 and 0.304"}]}]}
